Patent US20240294670A1 (University of Texas, published 2024)

Key:
Experiment in all cases: anti-His co-IP of rCHI3L1 from Kupffer cell lysate, MS; listed under 'proteins bound to CHI3L1'
Q3UJ34_MOUSE = molecular target: T1, Q3UJ34_MOUSE (mouse, UniProt Q3UJ34 1-412)
T1 construct: also called tr|Q3UJ34|Q3UJ34_MOUSE
T1 sequence: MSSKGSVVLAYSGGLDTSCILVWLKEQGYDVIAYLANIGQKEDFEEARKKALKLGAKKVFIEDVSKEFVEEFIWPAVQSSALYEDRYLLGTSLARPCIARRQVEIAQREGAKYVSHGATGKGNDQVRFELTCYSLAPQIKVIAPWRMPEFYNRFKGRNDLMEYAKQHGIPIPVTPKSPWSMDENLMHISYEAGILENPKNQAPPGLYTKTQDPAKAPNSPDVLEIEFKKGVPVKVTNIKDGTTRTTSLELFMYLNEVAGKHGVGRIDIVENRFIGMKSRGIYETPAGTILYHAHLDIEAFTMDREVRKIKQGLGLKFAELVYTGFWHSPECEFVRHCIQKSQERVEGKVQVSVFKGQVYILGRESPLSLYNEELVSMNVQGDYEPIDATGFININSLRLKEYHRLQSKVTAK
Protocol: (§1) CHI3L1 interacts with CD44 on KCs. To further understand how CHI3L1 mediates the function of KCs to recruit platelets, the inventors set out to identify its receptor on KCs. They isolated KCs from WT mice treated with APAP for 3 h and incubated the cells with His-tagged rCHI3L1. The cell lysate was subjected to immunoprecipitation using an anti-His antibody. The “pulled down” fraction was subjected to LC/MS analyses. A partial list of proteins identified, including CHI3L1 itself, is shown in (Extended Data Table 1). Because CD44 is a cell membrane protein, the inventors decided to investigate it is a receptor for CHI3L1. They performed/immunoprecipitation experiments using liver homogenates obtained from WT and CD44^{-/-} mice after APAP treatment. […] Moreover, the inventors incubated rhCHI3L1 with human CD44 and then immunoprecipitated with an anti-CD44 antibody. The data confirmed a direct binding between CHI3L1 and CD44 (FIG. 3C). Consistent with the notion that many cell types express CD44, they detected CD44 express on various hepatic non-parenchymal cells (NPCs) except B cells and DCs (summarized in Extended Data Table 2). However, when they incubated liver NPCs with His-tagged rCHI3L1, the inventors observed that the only CD44-expressing cells that could bind to CHI3L1 were KCs (FIG. 3D).

Q8C6E3_MOUSE = molecular target: T2, Q8C6E3_MOUSE (mouse, UniProt Q8C6E3 2-527)
T2 construct: also called tr|Q8C6E3|Q8C6E3_MOUSE
T2 sequence: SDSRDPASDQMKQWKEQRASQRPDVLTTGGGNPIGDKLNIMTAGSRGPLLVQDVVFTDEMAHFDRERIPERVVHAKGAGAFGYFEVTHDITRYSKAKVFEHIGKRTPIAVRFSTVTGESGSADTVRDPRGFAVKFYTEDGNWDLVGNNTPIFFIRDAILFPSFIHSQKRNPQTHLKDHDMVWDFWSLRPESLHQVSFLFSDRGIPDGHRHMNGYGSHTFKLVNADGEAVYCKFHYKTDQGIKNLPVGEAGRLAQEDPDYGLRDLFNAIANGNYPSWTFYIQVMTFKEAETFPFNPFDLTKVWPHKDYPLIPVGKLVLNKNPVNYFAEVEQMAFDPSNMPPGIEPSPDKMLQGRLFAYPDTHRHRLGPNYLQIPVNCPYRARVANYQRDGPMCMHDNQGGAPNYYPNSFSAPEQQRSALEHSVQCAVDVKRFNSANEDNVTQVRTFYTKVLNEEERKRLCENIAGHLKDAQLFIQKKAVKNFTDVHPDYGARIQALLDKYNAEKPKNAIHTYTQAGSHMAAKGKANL
Protocol: as §1

Q3TJ66_MOUSE = molecular target: T3, Q3TJ66_MOUSE (mouse, UniProt Q3TJ66 2-364)
T3 construct: also called tr|Q3TJ66|Q3TJ66_MOUSE
T3 sequence: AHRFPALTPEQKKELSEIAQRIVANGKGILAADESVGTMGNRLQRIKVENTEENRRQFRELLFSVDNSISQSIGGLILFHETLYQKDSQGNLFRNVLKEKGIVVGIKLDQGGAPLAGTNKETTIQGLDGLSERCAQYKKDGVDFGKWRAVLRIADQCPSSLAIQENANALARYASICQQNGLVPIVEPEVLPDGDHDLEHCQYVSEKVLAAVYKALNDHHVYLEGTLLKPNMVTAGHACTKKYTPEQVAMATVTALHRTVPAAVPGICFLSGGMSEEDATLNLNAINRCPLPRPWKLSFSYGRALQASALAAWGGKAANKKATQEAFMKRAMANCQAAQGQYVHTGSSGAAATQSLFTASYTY
Protocol: as §1

Q3UQ71_MOUSE = molecular target: T4, Q3UQ71_MOUSE (mouse, UniProt Q3UQ71 1-554)
T4 construct: also called tr|Q3UQ71|Q3UQ71_MOUSE
T4 sequence: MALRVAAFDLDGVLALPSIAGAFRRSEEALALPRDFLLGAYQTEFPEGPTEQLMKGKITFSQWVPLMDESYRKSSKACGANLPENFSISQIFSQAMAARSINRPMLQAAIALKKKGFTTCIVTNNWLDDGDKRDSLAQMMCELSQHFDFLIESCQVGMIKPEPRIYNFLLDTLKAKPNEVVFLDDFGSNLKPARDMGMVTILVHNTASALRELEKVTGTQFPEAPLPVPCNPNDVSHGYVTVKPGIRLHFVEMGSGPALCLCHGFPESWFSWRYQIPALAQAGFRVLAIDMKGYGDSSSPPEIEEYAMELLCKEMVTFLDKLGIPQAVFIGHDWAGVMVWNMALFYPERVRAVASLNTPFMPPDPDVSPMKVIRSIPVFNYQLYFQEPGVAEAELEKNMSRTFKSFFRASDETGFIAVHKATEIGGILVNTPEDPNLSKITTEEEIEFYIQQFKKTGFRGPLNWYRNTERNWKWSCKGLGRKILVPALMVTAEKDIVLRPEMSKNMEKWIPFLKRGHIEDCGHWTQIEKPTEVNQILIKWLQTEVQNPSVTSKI
Protocol: as §1

Measured: binding result

B1: recombinant mouse CHI3L1 (ligand)
chain: not shown
notes: His-tagged; also called mCHI3L1; mChi3l1
binds: all assays above
